This note sets out measurements from patent publication US7381803 (PROTEIN DESIGN LABS, dated 2008).

In experiment [1] the target is T1, human CD3 antigen on the surface of T cells (human, UniProt P07766 23-207).
T1 construct: whole, on cells; also called human CD3 complex
Nature of the experiment: Scatchard analysis, 125I-labelled antibody on activated human T cells. As to the method: Figure 11A: FIG. 11. (A). Displacement assay to compare the relative affinity of HuM291-Fos and M291 for their antigen. Sub-saturation amounts of murine M291-FITC on human T cells were displaced by increasing amounts of murine M291 or HuM291-Fos. T cells were resuspended in complete media at 2.5 ×10^6/ml. Dilutions of the test (HuM291-Fos) or control (murine M291) antibody were added and incubated at 4° C. for 1 hour. A fixed, subsaturation amount of murine M291-FITC was added, and the cells were incubated at 4° C. for 1 hour, wash d, and resuspended in 1% paraformaldehyde. The cells were then analyzed using flow cytometry. Values expressed in % inhibition of fluorescence intensity compared to no competitive antibody control. (B). Scatchard plot analysis of the binding of ^125I-label d HuM291-Fos to activated human T cells. […] The cells were washed in binding buffer (2% horse serum in PBS containing 0.1% sodium azide) and counted. Nonspecific binding was determined by inhibiting the specific binding with an excess of nonlabeled HuM291-Fos. The apparent K_a and the number of binding sites were calculated from the slope and th X axis intercept, respectively, of the Scatchard plot. […]
The relative affinity of murine M291 and HuM291-Fos F(ab'-zipper)_2 for T cells was evaluated using the displacement assay described above. […]

For experiment [2], the target named is 28/32 kDa heterodimeric protein on the surface of malignant B-cells. Nature of the experiment: Scatchard analysis, 125I-labelled antibody on Raji cells.
The target is the same in experiment [3]. Briefly: whole cell indirect radioimmunoassay on HO-85 and Raji cells.

T1 sequence (P07766 23-207): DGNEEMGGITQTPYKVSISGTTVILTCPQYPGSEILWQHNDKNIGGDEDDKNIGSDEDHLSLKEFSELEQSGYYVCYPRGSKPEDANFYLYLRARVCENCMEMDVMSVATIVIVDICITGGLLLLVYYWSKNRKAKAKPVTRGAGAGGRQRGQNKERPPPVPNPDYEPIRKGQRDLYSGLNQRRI

B1: HuM291-Fos F(ab'-zipper)2 (antibody, V domains shown)
VH: QVQLVQSGAEVKKPGASVKVSCKASGYTFISYTMHWVRQAPGQGLEWMGYINPRSGYTHYNQKLKDKATLTADKSASTAYMELSSLRSEDTAVYYCARSAYYDYDGFAYWGQGTLVTVSS
VL: DIQMTQSPSSLSASVGDRVTITCSASSSVSYMNWYQQKPGKAPKRLIYDTSKLASGVPSRFSGSGSGTDFTLTISSLQPEDFATYYCQQWSSNPPTFGGGTKVEIKR
notes: Bivalent F(ab'-zipper)2 fragment without Fc; The heavy chain is the Fd-Fos (VH 1-120, CH1 121-218, modified hinge 219-238, Fos leucine zipper 239-279); 125I-labelled in the Scatchard analysis; also called humanized F(ab'-zipper)2 of M291
With B1, the Ka in experiment [1] was roughly 1.1e+09 M⁻¹.

B2: humanized 1D10-IgG1 (antibody, V domains shown)
VH: QVQLQESGPGLVKPSETLSLTCTVSGFSLTNYGVHWVRQSPGKGLEWIGVKWSGGSTEYNAAFISRLTISKDTSKNQVSLKLNSLTAADTAVYYCARNDRYAMDYWGQGTLVTVSS
VL: DIQMTQSPSSLSASVGDRVTITCRASENIYSYLAWYQQKPGKAPKLLVSNAKTLAEGVPSRFSGSGSGKQFTLTISSLQPEDFATYYCQHHYGNSYPFGQGTKLEIKR
In experiment [2], B2 gave a Ka of 2.3e+08 M⁻¹ and a sites per cell (sites per cell) of 500000.

B3: mouse 1D10 antibody (parent, IgG1/kappa) (antibody, V domains shown)
VH: QVQLKQSGPGLVQPSQSLSITCTGSGFSLTNYGVHWVRQSPGKGLEWLGVKWSGGSTEYNAAFISRLSISKDNSKSQVFFKMNSLQADDTAMYYCARNDRYAMDYWGQGTSVTVSS
VL: DIQMTQSPASLSASVGETVTITCRASENIYSYLAWYQQKQGKSPQLLVSNAKTLAEGVTSRFSGSGSGKQFSLKINSLQPEDFGNYYCQHHYGNSYPFGGGTKLEIK
For B3, in experiment [3], the binding activity relative to tissue culture medium alone turned out to be 5 times.
